The target of the assay is pGBKT7-53 (control bait). In words: two-hybrid; β-galactosidase activity assay (Yeast β-galactosidase Assay Kit) on a colony from a DDO plate, 37 °C, OD 420 nm; average of three measurements.

The substance “pGADT7-T (control prey) (natural protein)” had a β-galactosidase activity of 401 units.

Values taken from publication PMC5625703.
